Source: the supplement of paper PMC7877785
± gives the uncertainty stated by the source.

Experiment: self-splicing fitness, log relative to wild type (ln ratio); higher = more splicing; Tetrahymena group I intron in knt gene, E. coli kanamycin selection, DiMSum; sequences stand for … in CUCUCU…GGAGGGAAAAGUUAUCAGGCAUGCACCUGGUAGCUAGUCUUUAAACCAAUAGAUUGCAUCGGUUUAAAAGGCAAGACCGUCAAAUUGCGGGAAAGGGGUCAACAGCCGUUCAGUACCAAGUCUCAGGGGAAACUUUGAGAUGGCCUUGCAAAGGGUAUGGUAAUAAGCUGACGGACAUGGUCCUAACCACGCAGCCAAGUCCUAAGUCAACAGAUCUUCUGUUGAUAUGGAUGCAGUUCACAGACUAAAUGUCGGUCGGGGAAGAUGUAUUCUUCUCAUAAGAUAUAGUCGGACCUCUCCUUAAUGGGAGCUAGCGGAUGAAGUGAUGCAACACUGGAGCCGCUGGGAACUAAUUUGUAUGCGAAAGUAUAUUGAUUAGUUUUGGAGUACUCGUGGUCG
Procedure, shortened: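 The eight P1ex-region nucleotides of an intron in the knt kanamycin-resistance gene on pET-22b(+) were all randomised and the library put into E. coli BL21(DE3). Six replicate transformations were grown overnight at 37°C or 30°C on LB agar with or without 25 μg/mL kanamycin, together with 100 μg/mL carbenicillin, 50 μM IPTG and 0.2% rhamnose. Colonies were pooled and amplicon-sequenced on an Illumina HiSeq 2500. Fitness from DiMSum is the error-weighted combination of wild-type-normalised replicate fold changes, kanamycin over none.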

Sequence | self-splicing fitness (ln) (30 °C) | self-splicing fitness (ln) (37 °C)
CUUAAGCAAUAUUACGAGUC | -3.23 ± 0.33 | -2.33 ± 0.29
AACAAGCAAUAUUACGCCGG | -0.692 ± 0.075 | -0.963 ± 0.12
CGCCAGCAAUAUUACGGACU | -0.845 ± 0.066 | 0.157 ± 0.091
CCCGAGCAAUAUUACGCUGG | -3.13 ± 0.16 | -2.68 ± 0.26
GCUUAGCAAUAUUACGUCCA | -1.72 ± 0.14 | -0.697 ± 0.14
CAACAGCAAUAUUACGCCCG | -0.408 ± 0.098 | 0.465 ± 0.12
AAGUAGCAAUAUUACGGUUG | -2.78 ± 0.1 | -2.16 ± 0.11
GCUGAGCAAUAUUACGUUUA | -2.35 ± 0.24 | -1.87 ± 0.25
GGAGAGCAAUAUUACGGGUA | -3.5 ± 0.28 | -2.62 ± 0.2
CGCAAGCAAUAUUACGAGUA | -2.53 ± 0.14 | -0.869 ± 0.096
ACGCAGCAAUAUUACGAGUA | -3.72 ± 0.33 | -3.07 ± 0.27
ACCUAGCAAUAUUACGGGAC | -1.87 ± 0.17 | -1.36 ± 0.18
UAUCAGCAAUAUUACGCUGG | -3.15 ± 0.25 | -1.62 ± 0.21
AAAAAGCAAUAUUACGGCCC | -0.786 ± 0.22 | 0.00498 ± 0.23
UUAAAGCAAUAUUACGUAAC | -2.67 ± 0.17 | -1.62 ± 0.2
GAGCAGCAAUAUUACGGCAU | -0.308 ± 0.081 | -0.549 ± 0.094
CGGCAGCAAUAUUACGGUGC | -2.88 ± 0.16 | -2.18 ± 0.19
GAAAAGCAAUAUUACGCUCA | -0.514 ± 0.11 | 0.0911 ± 0.14
AAUAAGCAAUAUUACGCUAU | -2.74 ± 0.16 | -2.24 ± 0.18

Sequence | self-splicing fitness (ln) (30 °C) | self-splicing fitness (ln) (37 °C)
UACGAGCAAUAUUACGUGGA | -3.55 ± 0.23 | -1.98 ± 0.19
GCGCAGCAAUAUUACGGCCC | -1.21 ± 0.14 | 0.349 ± 0.24
GCUCAGCAAUAUUACGGUGU | -1.3 ± 0.062 | 0.0463 ± 0.076
GUUCAGCAAUAUUACGGCGU | -0.298 ± 0.085 | 0.138 ± 0.11
CGAGAGCAAUAUUACGUGUA | -3.34 ± 0.22 | -2.9 ± 0.23
UAGUAGCAAUAUUACGAAGU | -2.42 ± 0.24 | -2.07 ± 0.33
GAAGAGCAAUAUUACGCUUC | -2.47 ± 0.34 | -1.37 ± 0.18
ACUCAGCAAUAUUACGUGUC | -3.74 ± 0.16 | -2.21 ± 0.17
GUCAAGCAAUAUUACGGUUU | -2.48 ± 0.075 | -1.44 ± 0.077
UCCGAGCAAUAUUACGCAAU | – | -2.91 ± 0.34
AGUUAGCAAUAUUACGGCAU | -0.297 ± 0.063 | -0.161 ± 0.085
UGGGAGCAAUAUUACGACGA | – | -0.296 ± 0.36
GCGUAGCAAUAUUACGCUAU | -4.42 ± 0.42 | -2.46 ± 0.45
CGUCAGCAAUAUUACGGCGG | -1.01 ± 0.082 | 0.0141 ± 0.11
GCAGAGCAAUAUUACGAUAA | -3.38 ± 0.41 | -2.72 ± 0.44
GGCUAGCAAUAUUACGAAUG | -2.26 ± 0.14 | -1.01 ± 0.14
AACAAGCAAUAUUACGGUGG | -1.84 ± 0.06 | -0.813 ± 0.073
UUUAAGCAAUAUUACGGGAA | -1.63 ± 0.094 | -0.806 ± 0.095
CCGUAGCAAUAUUACGUAGG | -3.19 ± 0.17 | -1.87 ± 0.19
